Experimental data published in article PMC6269442, “High resolution X-ray and NMR structural study of human T-cell immunoglobulin and mucin domain containing protein-3” (Scientific Reports, 2018).

Target: T1, tagless human TIM-3 IgV domain (human, UniProt Q8TDQ0 24-130)
T1 construct: N-terminal methionine added before Val24; T-cell immunoglobulin and mucin domain containing protein-3 (TIM-3, HAVCR2), human, IgV domain, Val24 thru Lys130; the same tagless protein was used for crystallization and ELISA; also called tagless hTIM-3 IgV domain; hTIM-3 IgV domain
T1 sequence (Q8TDQ0 other isoform, or with tags, fused parts or gaps): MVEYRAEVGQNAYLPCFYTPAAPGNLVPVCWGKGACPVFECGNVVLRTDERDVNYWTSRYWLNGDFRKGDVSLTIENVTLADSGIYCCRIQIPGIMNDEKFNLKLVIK
Experiment: ELISA; tagless hTIM-3 IgV (50 μl of 250 nM) coated on the plate; GST tagged hCEACAM1 IgV (0–15 μM) or GST control in Dulbeccos PBS; detected with goat polyclonal anti-GST-HRP
Conditions: both partners purified

B1: glutathione-S-transferase (GST) tagged hCEACAM1 IgV-domain protein (domain or fragment, human, UniProt P13688 35-142, looked up)
chain: QLTTESMPFNVAEGKEVLLLVHNLPQQLFGYSWYKGERVDGNRQIVGYAIGTQQATPGPANSGRETIYPNASLLIQNVTQNDTGFYTLQVIKSDLVNEEATGQFHVYP
notes: carcinoembryonic antigen cell adhesion molecule 1 (CEACAM1), human, IgV (N-terminal) domain; Detected by an anti-GST-HRP antibody; also called GST-hCEACAM1 IgV fusion protein
EC50: 3.13 µM
